Assay results reported in patent publication US20090053213A1 (MorphoSys, published 2009).
Where a chain is given by its changes, count along the chain named.

Key:
rat GM-CSF [1] = biological target: T1, rat GM-CSF (rat, UniProt P48750 18-144); assay: solution equilibrium titration (SET), Fab with rat GM-CSF (Peprotech) as analyte in solution
T1 construct: Bought recombinant protein; also called rat-GM-CSF (Peprotech); rat recombinant GM-CSF
T1 sequence (looked up): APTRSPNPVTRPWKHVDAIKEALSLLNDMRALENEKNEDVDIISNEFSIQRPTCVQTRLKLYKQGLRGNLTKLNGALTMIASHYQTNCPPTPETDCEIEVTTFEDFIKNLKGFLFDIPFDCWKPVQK

human GM-CSF [2] = biological target: T2, human GM-CSF (human, UniProt P04141 18-144); assay: cell-based or functional assay
T2 sequence (P04141 18-144): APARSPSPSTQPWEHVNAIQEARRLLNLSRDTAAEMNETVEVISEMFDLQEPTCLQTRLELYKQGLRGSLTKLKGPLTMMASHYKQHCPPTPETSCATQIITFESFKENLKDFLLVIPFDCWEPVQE

human GM-CSF [3] = biological target: T2, human GM-CSF; assay: FACS receptor inhibition assay: inhibition of binding of 0.5 µg/ml biotinylated GM-CSF to GM-CSF receptor alpha on CHO-GMRa#11 cells
Protocol: (§1) All stainings were performed in round bottom 96-well culture plates (Nalge Nunc) with 1-5×10⁵ cells per well. […] Cells were then washed once with 150 μl FACS buffer/well and taken up in 100 μl phycoerythrin-labeled streptavidin (BD Biosciences Pharmingen) which has been diluted 1:400 in FACS buffer. […] IC₅₀ values were determined from the dose response curves obtained using GraphPad Prism v3.03 software applying a non-linear regression curve fit.
(§2) IC₅₀ values were determined from the dose response curves obtained using GraphPad Prism v3.03 software applying a non-linear regression curve fit.

human GM-CSF [4] = biological target: T2, human GM-CSF; assay: cell-based or functional assay; remark: listed apart in the source
human GM-CSF [5] = biological target: T2, human GM-CSF; assay: SPR (Biacore), Fab over immobilized recombinant human GM-CSF (Peprotech), F1 chip; affinity estimated from off-rates
Protocol: A respective amount of HSA was immobilized on the reference flow cell. […] Fab was applied in concentration series of 6.3-200 nM at a flow rate of 20 μl/min.

human GM-CSF [6] = biological target: T2, human GM-CSF; assay: FACS receptor inhibition assay: antibody pre-incubated with 0.5 µg/ml biotinylated GM-CSF, binding to GM-CSF receptor alpha on CHO-GMRa#11 cells
Protocol: as §1, §2

rat GM-CSF [7] = biological target: T1, rat GM-CSF; assay: SPR (Biacore 3000), Fab captured on anti-F(ab)2, rat GM-CSF as analyte
Protocol: This was performed in a capture set-up by surface plasmon resonance (Biacore 3000, Uppsala, Sweden).
CM5 chips (Biacore, Sweden) were coated with 5000-6000 RU anti-F(ab)₂ (Dianova, Affinipure F(ab)₂ Fragment Goat Anti-Human IgG, F(ab)₂ Fragment specific); 80 μg/ml 10 mM acetate buffer, pH4 on all 4 flow cells, using standard EDC-NHS amine coupling chemistry. […] After capturing of the specific Fab, buffer was injected, to determine the dissociation of anti-Fab/Fab interaction. In a following cycle, the analyte growth factor was injected (20 μl, flow rate 20 μl/min) at a concentration range between 15 and 2000 nM for the determination of the specific signal. Afterwards the achieved buffer sensogram was manually subtracted from the specific one. After each cycle, the flow cells were regenerated with 100 mM HCl (5 μl).

human GM-CSF [8] = biological target: T2, human GM-CSF; assay: solution equilibrium titration (SET, ECL/BioVeris), Fab with human GM-CSF (Leucomax) in solution
[9] = biological target: macaca mulatta (rhesus) GM-CSF (Macaca mulatta (rhesus)); assay: cell-based or functional assay
rat GM-CSF [10] = biological target: T1, rat GM-CSF; assay: solution equilibrium titration (SET), IgG1 with rat GM-CSF (Peprotech) as analyte in solution

B1: MOR04357 Fab (Fab, V domains shown)
VH: QVQLVESGGGLVQPGGSLRLSCAASGFTFSSYWMNWVRQAPGKGLEWVSGIENKYAGGATYYAASVKGRFTISRDNSKNTLYLQMNSLRAEDTAVYYCARGFGTDFWGQGTLVTVSS
VL: DIELTQPPSVSVAPGQTARISCSGDSIGKKYAYWYQQKPGQAPVLVIYKKRPSGIPERFSGSNSGNTATLTISGTQAEDEADYYCSAWGDKGMVFGGGTKLTVLG
notes: X-cloned Fab (VH of MOR04252 x VL of MOR04302) with FLAG and 6xHis tags; also called Fab MOR04357
Question: How did the Kd (rat GM-CSF [1]) turn out when B1 was run?
Answer: 1 nM

B2: MOR03929 Fab (Fab, V domains shown)
VH: QVQLVESGGGLVQPGGSLRLSCAASGFTFSSYWMNWVRQAPGKGLEWVSGISYSGSETYYADSVKGRFTISRDNSKNTLYLQMNSLRAEDTAVYYCARGFGTDFWGQGTLVTVSS
VL: B1 VL with A87S, G89D, D90S, K91T, M93L
notes: Parental HuCAL GOLD Fab with C-terminal FLAG and 6xHis tags
Question: How did the “IC50 (pM) in TF-1 proliferation assay, human GM-CSF 0.25 ng/ml” value (human GM-CSF [2]) turn out when B2 was run?
Answer: > 200000 pM

Question: And the “% inhibition at 5 µg/ml antibody” value (human GM-CSF [3])?
Answer: ~60%

Question: And the “inhibition of TF1 cell proliferation at 2 µM Fab, human GM-CSF (Leucomax) 0.25 ng/ml” value (human GM-CSF [4])?
Answer: > 50%

Question: What about the Kd (human GM-CSF [5]) of the same binder?
Answer: 4.26 nM

Question: What about the IC50 (human GM-CSF [6]) of the same binder?
Answer: 35 nM

Question: Does B2 bind (rat GM-CSF [7])?
Answer: binds

Question: And the Kd (human GM-CSF [8])?
Answer: 2 nM

B3: MOR04357 IgG1 (antibody, V domains shown)
VH: B1 VH
VL: B1 VL
notes: expressed in HKB11 cells; also called IgG1 MOR04357
Question: B3 was tested. Which “IC50 (pM) in TF-1 proliferation assay, macaca GM-CSF (HEK293)” value [9] did it give?
Answer: 15 pM

Question: What about the Kd (rat GM-CSF [10]) of the same binder?
Answer: 0.13 nM
